Measured values: patent publication US20210363269A1 (ALX ONCOLOGY, published 2021)

T1: BALBc mouse SIRP-α (mouse (BALB/c strain))
T1 chain: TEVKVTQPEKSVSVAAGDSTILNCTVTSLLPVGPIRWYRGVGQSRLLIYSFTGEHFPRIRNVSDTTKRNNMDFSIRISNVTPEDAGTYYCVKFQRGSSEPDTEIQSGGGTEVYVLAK

T2: cynomolgus SIRP-α (cynomolgus monkey, UniProt Q5TFQ8 30-148 (human entry), limits assumed)
T2 construct: also called cyno1
T2 chain: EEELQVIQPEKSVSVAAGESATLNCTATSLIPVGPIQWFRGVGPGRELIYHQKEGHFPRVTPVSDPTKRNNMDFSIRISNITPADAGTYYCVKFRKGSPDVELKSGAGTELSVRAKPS

T3: C57BL/6 mouse SIRP-α D1 domain (mouse (C57BL/6 strain), UniProt P97797 32-148)
T3 sequence: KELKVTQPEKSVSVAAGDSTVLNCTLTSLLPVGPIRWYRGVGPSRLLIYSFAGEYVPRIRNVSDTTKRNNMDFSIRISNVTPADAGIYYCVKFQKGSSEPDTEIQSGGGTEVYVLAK

T4: cynomolgus SIRP-α D1 domain (cyno1) (cynomolgus monkey, UniProt Q5TFQ8 30-148 (human entry), limits assumed)
T4 chain: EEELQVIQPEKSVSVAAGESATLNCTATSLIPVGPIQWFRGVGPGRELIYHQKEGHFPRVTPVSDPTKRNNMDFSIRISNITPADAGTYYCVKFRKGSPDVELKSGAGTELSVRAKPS


Key:
BALBc mouse SIRP-α = target: T1, BALBc mouse SIRP-α; test: SPR
Outline: (§1)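 Runs took place at 25° C in PBS pH 7.4 containing 0.01% Tween-20 on a ProteOn XPR36 biosensor, with purified antibodies either amine-coupled to a GLC chip or captured through biotinylated Protein A on an NLC chip. SIRP analytes went in by one-shot kinetic injection at nominal concentrations based on A280 absorbance. Apparent rate constants came from a global simple Langmuir fit of double-referenced data, and KD was calculated as kd/ka.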

human SIRPγ isoform 1 [1] = target: T5, human SIRPγ isoform 1 (human, UniProt Q9P1W8 29-147); test: SPR
T5 construct: also called Gamma; Human SIRPg
Outline: as §1
T5 sequence (Q9P1W8 29-147 limits assumed): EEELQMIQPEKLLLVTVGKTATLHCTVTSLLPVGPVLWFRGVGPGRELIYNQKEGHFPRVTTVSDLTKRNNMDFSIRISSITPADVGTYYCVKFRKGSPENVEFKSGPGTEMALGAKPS

human SIRP-α v2 [2] = target: T6, human SIRP-α v2 (human); test: SPR
T6 construct: also called Human v2; Human V2
T6 sequence (chain, as listed by the source limits assumed): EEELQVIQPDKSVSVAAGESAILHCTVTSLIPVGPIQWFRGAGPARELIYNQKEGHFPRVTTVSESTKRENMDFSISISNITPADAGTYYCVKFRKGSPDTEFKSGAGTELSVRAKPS
Outline: as §1

cynomolgus SIRP-α = target: T2, cynomolgus SIRP-α; test: SPR
Outline: as §1

human SIRP-α v1 [3] = target: T7, human SIRP-α v1 (human, UniProt P78324 31-149); test: SPR
T7 construct: also called Human v1; Human V1
T7 sequence (P78324 31-149 limits assumed): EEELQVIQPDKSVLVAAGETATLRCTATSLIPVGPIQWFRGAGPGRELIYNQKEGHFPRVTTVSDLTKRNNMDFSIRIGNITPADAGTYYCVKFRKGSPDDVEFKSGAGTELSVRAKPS
Outline: as §1

human SIRP-α v1 [4] = target: T7, human SIRP-α v1; test: SPR; remark: listed apart in the source
Outline: as §1

[5] = target: T3, C57BL/6 mouse SIRP-α D1 domain; test: SPR
Outline: (§2)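 scFv-Fc antibody clones were captured from pre-filtered culture media onto anti-human IgG Fc, amine-coupled at about 4000 RU on a GLC chip in a ProteOn XPR36 instrument. SIRP analytes were passed over in PBS pH 7.4 with 0.01% Tween-20 at 25° C, and responses were double-referenced against interspot and buffer-blank signals. Curves were fitted to a 1:1 Langmuir model. Dissociation rate constants (koff) were taken from those fits.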

[6] = target: T4, cynomolgus SIRP-α D1 domain (cyno1); test: SPR, Langmuir fit
Outline: as §2

human SIRPγ isoform 1 [7] = target: T8, human SIRPγ isoform 1 (human, UniProt Q9P1W8 29-147); test: SPR, Langmuir fit
T8 construct: also called SIRPg; sirpg
Outline: as §2
T8 sequence (Q9P1W8 29-147 limits assumed): as the sequence (Q9P1W8 29-147 limits assumed) above

[8] = target: T9, human SIRP-α v2 D1 domain (human); test: SPR, Langmuir fit
T9 construct: also called human v2
T9 sequence (chain, as listed by the source limits assumed): as the sequence (chain, as listed by the source limits assumed) above
Outline: as §2

[9] = target: T10, human SIRP-α v1 D1 domain (human, UniProt P78324 31-149); test: SPR, Langmuir fit
T10 construct: also called human v1
T10 sequence (P78324 31-149 limits assumed): as the sequence (P78324 31-149 limits assumed) above
Outline: as §2

human SIRP-α v2 [10] = target: T6, human SIRP-α v2; test: SPR; remark: listed apart in the source
Outline: as §1

Binder	koff (BALBc mouse SIRP-α)	koff (human SIRPγ isoform 1 [1])	koff (human SIRP-α v2 [2])	koff (cynomolgus SIRP-α)	koff (human SIRP-α v1 [3])	Kd (human SIRP-α v1 [4])	binding result [5]	koff [6]	koff (human SIRPγ isoform 1 [7])	koff [8]	koff [9]	Kd (human SIRP-α v2 [10])
Hum3/AB27_HC_wt (antibody, V domains shown) VH: DVQLVESGGGVVRPGESLRLSCAVSGFRFSSYAMSWVRQAPGKGLEWVSGISSGGDTYYVDSVKGRFTISRDNSKNTLYLQVNSLTAEDTAIYYCARETWNHLFDYWGLGTLVTVSS VL: SYELTQPPSVSVSPGQTARITCSGGDYYSTYYAWYQQKPGQAPVTVIHSDDKRPSDIPERFSGSSSGTTVTLTISGVQAEDEADYYCGGYDGRTYINTFGGGTKLTVL	0.000202 s⁻¹	0.000207 s⁻¹	0.000396 s⁻¹	0.000464 s⁻¹	0.000216 s⁻¹							
antibody 27 (antibody, V domains shown, also called AB27; S27) VH: DVQLVESGGGVVRPGESLRLSCAVSGFRFSSYAMSWVRQAPGKGLEWVSGISSGGDTYYVDSVKGRFTISRDNSKNTLYLQVNSLTAEDTAIYYCARETWNHLFDYWGLGTLVTVSS VL: ALTQPASVSADLGETVKITCSGGDSSSHYYGWYQQKSPGSAPVTVIYSDDERPSDIPSRFSGSASGSTATLTITGVRVEDEAIYYCGAYDGSTYANTFGAGTTLTVL	0.005 s⁻¹	0.000407 s⁻¹	0.000579 s⁻¹	0.000683 s⁻¹	0.000315 s⁻¹	21.5 pM						
S218 (scFv, V domains shown, scFv-Fc format (VL-linker-VH on human IgG1 Fc)) VH: DVQLVESGGGVVRPGESLTLSCTASGFTFTSSTMNWVRQAPGEGLDWVSSISTSGVITYYADSVKGRATISRDNSKNTLYLRLFSLRADDTAIYYCATDTFDHWGPGTLVTVSS VL: ALTQPASVSANPGETVKITCFGSSGNYGWFQQKSPGSAPVTVIHYNNKRPSDIPSRFSGSKSGSTGTLTITGVRAEDEAVYFCGAWETGSATFGAGTTLTVL							no binding (tested: Koff > 5 × 10^3 (legend))	2.49e-05 s⁻¹	2.12e-05 s⁻¹	5.47e-05 s⁻¹	7.06e-05 s⁻¹	
Hum1/AB21_HC_wt (antibody, V domains shown) VH: DVQLVESGGGVVRPGESLRLSCAASGFTFSSNAMSWVRQAPGKGLEWLAGISAGGSDTYYPASVKGRFTISRDNSKNTLYLQMNTLTAEDTAVYYCARETWNHLFDYWGLGTLVTVSS VL: SYELTQPPSVSVSPGQTARITCSGGSYSSYYYAWYQQKPGQAPVTLIYSDDKRPSNIPERFSGSSSGTTVTLTISGVQAEDEADYYCGGYDQSSYTNPFGGGTKLTVL	0.00291 s⁻¹	0.000188 s⁻¹	0.000303 s⁻¹	0.000395 s⁻¹	0.000193 s⁻¹							
Hum3/AB66_HC_wt (antibody, V domains shown) VH: DVQLVESGGGVVRPGESLRLSCAASGFTFSSYAMSWVRQAPGKGLEWLAGISAGGSDTYYIDSVKGRFTISRDNPKNSLYLQMSSLTAEDTAVYYCARETWNHLFDYWGLGTLVTVSS VL: SYELTQPPSVSVSPGQTARITCSGGDYYSTYYAWYQQKPGQAPVTVIHSDDKRPSDIPERFSGSSSGTTVTLTISGVQAEDEADYYCGGYDGRTYINTFGGGTKLTVL	0.00205 s⁻¹	0.000135 s⁻¹	0.000287 s⁻¹	0.000306 s⁻¹	0.000124 s⁻¹							
Hum1/AB25_HC_wt (antibody, V domains shown) VH: DVQLVESGGGVVRPGESLRLSCEASGFTFSSNAMSWVRQAPGKGLEWVAGISSGSDTYYGDSVKGRLTISRDNSKNILYLQMNSLTAEDTAVYYCARETWNHLFDYWGLGTLVTVSS VL: SYELTQPPSVSVSPGQTARITCSGGSYSSYYYAWYQQKPGQAPVTLIYSDDKRPSNIPERFSGSSSGTTVTLTISGVQAEDEADYYCGGYDQSSYTNPFGGGTKLTVL	0.00374 s⁻¹	0.000203 s⁻¹	0.000267 s⁻¹	0.00033 s⁻¹	0.000133 s⁻¹							
antibody 66 (antibody, V domains shown, also called AB66; S66) VH: DVQLVESGGGVVRPGESLRLSCAASGFTFSSYAMSWVRQAPGKGLEWLAGISAGGSDTYYIDSVKGRFTISRDNPKNSLYLQMSSLTAEDTAVYYCARETWNHLFDYWGLGTLVTVSS VL: ALTQPASVSANPGETVKITCSGGDYYSTYYAWYQQKSPGSAPVTVIHSDDKRPSDIPSRFSGSASGSAATLIITGVRVEDEAVYYCGGYDGRTYINTFGAGTTLTVL	0.00346 s⁻¹	0.000997 s⁻¹	0.00281 s⁻¹	0.00269 s⁻¹	0.000949 s⁻¹	< 1 pM						
Hum3/AB21_HC_wt (antibody, V domains shown) VH: DVQLVESGGGVVRPGESLRLSCAASGFTFSSNAMSWVRQAPGKGLEWLAGISAGGSDTYYPASVKGRFTISRDNSKNTLYLQMNTLTAEDTAVYYCARETWNHLFDYWGLGTLVTVSS VL: SYELTQPPSVSVSPGQTARITCSGGDYYSTYYAWYQQKPGQAPVTVIHSDDKRPSDIPERFSGSSSGTTVTLTISGVQAEDEADYYCGGYDGRTYINTFGGGTKLTVL	0.00231 s⁻¹	0.00021 s⁻¹	0.000438 s⁻¹	0.000432 s⁻¹	0.000137 s⁻¹							
Hum1/AB27_HC_wt (antibody, V domains shown) VH: DVQLVESGGGVVRPGESLRLSCAVSGFRFSSYAMSWVRQAPGKGLEWVSGISSGGDTYYVDSVKGRFTISRDNSKNTLYLQVNSLTAEDTAIYYCARETWNHLFDYWGLGTLVTVSS VL: SYELTQPPSVSVSPGQTARITCSGGSYSSYYYAWYQQKPGQAPVTLIYSDDKRPSNIPERFSGSSSGTTVTLTISGVQAEDEADYYCGGYDQSSYTNPFGGGTKLTVL	0.0037 s⁻¹	0.000178 s⁻¹	0.000292 s⁻¹	0.000379 s⁻¹	0.000192 s⁻¹							
Hum3/AB25_HC_wt (antibody, V domains shown) VH: DVQLVESGGGVVRPGESLRLSCEASGFTFSSNAMSWVRQAPGKGLEWVAGISSGSDTYYGDSVKGRLTISRDNSKNILYLQMNSLTAEDTAVYYCARETWNHLFDYWGLGTLVTVSS VL: SYELTQPPSVSVSPGQTARITCSGGDYYSTYYAWYQQKPGQAPVTVIHSDDKRPSDIPERFSGSSSGTTVTLTISGVQAEDEADYYCGGYDGRTYINTFGGGTKLTVL	0.000227 s⁻¹	0.000169 s⁻¹	0.000353 s⁻¹	0.000375 s⁻¹	5.94e-05 s⁻¹							
antibody 21 (antibody, V domains shown, also called AB21; S21) VH: DVQLVESGGGVVRPGESLRLSCAASGFTFSSNAMSWVRQAPGKGLEWLAGISAGGSDTYYPASVKGRFTISRDNSKNTLYLQMNTLTAEDTAVYYCARETWNHLFDYWGLGTLVTVSS VL: ALTQPASVSANPGETVKIACSGGDYYSYYYGWYQQKAPGSALVTVIYSDDKRPSDIPSRFSGSASGSTATLTITGVRAEDEAVYYCGGYDYSTYANAFGAGTTLTVL	0.00241 s⁻¹	0.000902 s⁻¹	0.00192 s⁻¹	0.00229 s⁻¹	0.000707 s⁻¹	< 1 pM						< 1 pM
Hum1/AB66_HC_wt (antibody, V domains shown) VH: DVQLVESGGGVVRPGESLRLSCAASGFTFSSYAMSWVRQAPGKGLEWLAGISAGGSDTYYIDSVKGRFTISRDNPKNSLYLQMSSLTAEDTAVYYCARETWNHLFDYWGLGTLVTVSS VL: SYELTQPPSVSVSPGQTARITCSGGSYSSYYYAWYQQKPGQAPVTLIYSDDKRPSNIPERFSGSSSGTTVTLTISGVQAEDEADYYCGGYDQSSYTNPFGGGTKLTVL	0.00246 s⁻¹	0.000136 s⁻¹	0.000239 s⁻¹	0.000303 s⁻¹	0.000124 s⁻¹							
